Laboratory results taken from article PMC4173783.

How the values were obtained:
[1] = target: recombinant GpA extracellular domain fused to Fc and His tag (rGpA-Fc-His) (human) (UniProt P02724); assay: AUC
[2] = target: recombinant GpA extracellular domain fused to Fc and His tag (rGpA-Fc-His) (human) (UniProt P02724); assay: SDS-PAGE without and with reducing agent
[3] = target: Plasmodium falciparum EBA-175 region II (P. falciparum)

**Q.** “recombinant GpA extracellular domain fused to Fc and His tag (rGpA-Fc-His) (from UniProt P02724 23-84) (Fc fusion)” was tested. Which stoichiometry N [1] did it give?
**A.** Its stoichiometry N is 2.

**Q.** What about the stoichiometry N [2] of the same substance?
**A.** Its stoichiometry N is 2.

**Q.** What about the parasite growth with 30 µM rGpA, strains 3D7, Dd2 and FVO/FCR1 [3] of the same substance?
**A.** Its parasite growth with 30 µM rGpA, strains 3D7, Dd2 and FVO/FCR1 is 50%.
